The values below come from the supplement of paper PMC10567573.

B1: KCNA1 (parent)
chain: LKASMRELGLLIFFLFIGVILFSS
B2: FUNDC2 (parent)
chain: YIKVDWQRVEKDMKKAKEQLKIRK
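Also: lentivirally expressed fusions sorted by FACS into six bins by GFP to DsRed ratio, PSI derived from sequencing read proportions per bin multiplied by bin number.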

One series covers variants of B1. Put plainly: protein stability index of a GFP-peptide fusion (GPS, HEK-293T) (PSI 1-6); higher = more stable. Conditions: c terminus: a fixed tail appended.
As to LKASMRELGLLIFFLFIGVILSSS [F22S], the protein stability index is 2.95.

On to LKASMRELGLLIFFLFIGVILLSS [F22L], for which the protein stability index came out at 2.25. Still for that read-out and setting: the same measure for LKASMRELGLLIFFLFIGVILISS [F22I]: 2.43; for LKASMRELGLLIFFLFIGVILMSS [F22M]: 2.98; for LKASMRELGLLIFFLFIGVILGSS [F22G]: 1.81. The same measure, in the same setting: the figure for LKASMRELGLLIFFLFIGVILASS [F22A] is 2.33; for LKASMRELGLLIFFLFIGVILNSS [F22N] it is 3.37. The same measure, in the same setting: the figure for LKASMRELGLLIFFLFIGVILTSS [F22T] is 3.72; for LKASMRELGLLIFFLFIGVILQSS [F22Q] it is 3.69; for LKASMRELGLLIFFLFIGVILESS [F22E] it is 2.63. For the variant LKASMRELGLLIFFLFIGVILYSS [F22Y], the protein stability index came out at 1.93. Regarding LKASMRELGLLIFFLFIGVILWSS [F22W], the protein stability index was determined as 2.75. Still for that read-out and setting: the figure for LKASMRELGLLIFFLFIGVILVSS [F22V] is 1.8; for LKASMRELGLLIFFLFIGVILDSS [F22D] it is 2.83. The same measure, in the same setting: the figure for LKASMRELGLLIFFLFIGVILHSS [F22H] is 3.76; for LKASMRELGLLIFFLFIGVILPSS [F22P] it is 2.64; for LKASMRELGLLIFFLFIGVILRSS [F22R] it is 2.24. LKASMRELGLLIFFLFIGVILKSS [F22K]: the protein stability index is 2.81.

With LKASMRELGLLIFFLFIGVISFSS [L21S], the protein stability index was found to be 3.5. The same measure, in the same setting: the same measure for LKASMRELGLLIFFLFIGVIWFSS [L21W]: 2.35. On to LKASMRELGLLIFFLFIGVITFSS [L21T], for which the protein stability index came to 2.68. For LKASMRELGLLIFFLFIGVIVFSS [L21V], the protein stability index was determined as 2.12.

As for LKASMRELGLLIFFLFIGVIYFSS [L21Y], the protein stability index stood at 1.91.

On to LKASMRELGLLIFFLFIGVIRFSS [L21R], for which the protein stability index was 3.21. Still for that read-out and setting: the same measure for LKASMRELGLLIFFLFIGVILFTS [S23T]: 1.44; for LKASMRELGLLIFFLFIGVILFQS [S23Q]: 2.13. The same measure, in the same setting: the figure for LKASMRELGLLIFFLFIGVILFAS [S23A] is 2.19; for LKASMRELGLLIFFLFIGVILFCS [S23C] it is 1.67. The same measure, in the same setting: the figure for LKASMRELGLLIFFLFIGVILFLS [S23L] is 2.19. Consider LKASMRELGLLIFFLFIGVILFFS [S23F], for which the protein stability index turned out to be 2.15. Same read-out and setting: the same measure for LKASMRELGLLIFFLFIGVILFPS [S23P]: 2.42; for LKASMRELGLLIFFLFIGVILFMS [S23M]: 2.35. Same read-out and setting: the figure for LKASMRELGLLIFFLFIGVILFDS [S23D] is 2.75; for LKASMRELGLLIFFLFIGVILFNS [S23N] it is 2.41. Still for that read-out and setting: the figure for LKASMRELGLLIFFLFIGVILFKS [S23K] is 3.15.

LKASMRELGLLIFFLFIGVILFHS [S23H]: the protein stability index came out at 2.15. On the same count and under the same terms, the same measure for LKASMRELGLLIFFLFIGVILFVS [S23V]: 2; for LKASMRELGLLIFFLFIGVILFGS [S23G]: 2.03; for LKASMRELGLLIFFLFIGVILFYS [S23Y]: 2.2. LKASMRELGLLIFFLFIGVILFIS [S23I]: the protein stability index was determined as 1.85. Consider LKASMRELGLLIFFLFIGVILFWS [S23W], for which the protein stability index came to 2.38.

For the variant LKASMRELGLLIFFLFIGVILFRS [S23R], the protein stability index is 3.62. Same read-out and setting: the figure for LKASMRELGLLIFFLFIGVILFSY [S24Y] is 2.06; for LKASMRELGLLIFFLFIGVILFSC [S24C] it is 1.19; for LKASMRELGLLIFFLFIGVILFSE [S24E] it is 2.02. Still for that read-out and setting: the same measure for LKASMRELGLLIFFLFIGVILFST [S24T]: 2; for LKASMRELGLLIFFLFIGVILFSV [S24V]: 1.85. Still for that read-out and setting: the same measure for LKASMRELGLLIFFLFIGVILFSD [S24D]: 2; for LKASMRELGLLIFFLFIGVILFSF [S24F]: 2.02; for LKASMRELGLLIFFLFIGVILFSI [S24I]: 1.23. As for LKASMRELGLLIFFLFIGVILFSL [S24L], the protein stability index was found to be 1.47. The same measure, in the same setting: the same measure for LKASMRELGLLIFFLFIGVILFSN [S24N]: 2.83. Same read-out and setting: the figure for LKASMRELGLLIFFLFIGVILFSQ [S24Q] is 2.11; for LKASMRELGLLIFFLFIGVILFSP [S24P] it is 3.1; for LKASMRELGLLIFFLFIGVILFSK [S24K] it is 3.45. Regarding LKASMRELGLLIFFLFIGVILFSW [S24W], the protein stability index is 1.84. Still for that read-out and setting: the same measure for LKASMRELGLLIFFLFIGVILFSA [S24A]: 2.04; for LKASMRELGLLIFFLFIGVILFSM [S24M]: 2.42. On the same count and under the same terms, the figure for LKASMRELGLLIFFLFIGVILFSH [S24H] is 2.

The variants in the next series derive from B2. Described as above. Conditions: c terminus: a fixed tail appended.
For the variant YIKVDWQRVEKDMKKAKEQLCIRK [K21C], the protein stability index was found to be 2.06. Still for that read-out and setting: the same measure for YIKVDWQRVEKTMKKAKEQLKIRK [D12T]: 1.74; for YIKVDWQRVEKMMKKAKEQLKIRK [D12M]: 2.97. Same read-out and setting: the figure for DIKVDWQRVEKDMKKAKEQLKIRK [Y1D] is 4.17; for IIKVDWQRVEKDMKKAKEQLKIRK [Y1I] it is 2.21. Same read-out and setting: the figure for NIKVDWQRVEKDMKKAKEQLKIRK [Y1N] is 3.7. In the case of YIKVDWQRVEKDMKKAEEQLKIRK [K17E], the protein stability index is 2.15. On the same count and under the same terms, the figure for YIKVDWQRVEKDMKKAQEQLKIRK [K17Q] is 1.65. On the same count and under the same terms, the figure for YIKVDWQRVEKDMKKAMEQLKIRK [K17M] is 2.83. YIKVDWQRVEFDMKKAKEQLKIRK [K11F]: the protein stability index was 1.64. Regarding YIKADWQRVEKDMKKAKEQLKIRK [V4A], the protein stability index stood at 3.41. Same read-out and setting: the same measure for YIKVDWQRLEKDMKKAKEQLKIRK [V9L]: 2.04; for YIKVDWQRSEKDMKKAKEQLKIRK [V9S]: 1.91. Same read-out and setting: the figure for YIKVDWQRQEKDMKKAKEQLKIRK [V9Q] is 2.16.

Regarding YIKVDWQRVEKDMKCAKEQLKIRK [K15C], the protein stability index was 2.35. For YIKVDWQRVEKDMKPAKEQLKIRK [K15P], the protein stability index was 1.72. The same measure, in the same setting: the figure for YIKVDWQRVEKDMKKAKNQLKIRK [E18N] is 1.72; for YIKVDWQRVEKDMKKAKLQLKIRK [E18L] it is 2.12; for YIKVDWQRVEKDMKKAKWQLKIRK [E18W] it is 1.16.

As to YIKVDWTRVEKDMKKAKEQLKIRK [Q7T], the protein stability index was 1.73.

YIKVDWQRVEKDMKKAKEQLKMRK [I22M]: the protein stability index is 1.97. Same read-out and setting: the figure for YIKVDWQRVEKDMKKIKEQLKIRK [A16I] is 2.06. Still for that read-out and setting: the same measure for YIKVNWQRVEKDMKKAKEQLKIRK [D5N]: 2.19.

Take YIKVKWQRVEKDMKKAKEQLKIRK [D5K]: the protein stability index came out at 2.1. Same read-out and setting: the same measure for YAKVDWQRVEKDMKKAKEQLKIRK [I2A]: 3.35; for YWKVDWQRVEKDMKKAKEQLKIRK [I2W]: 2.96. On the same count and under the same terms, the same measure for YIKVDWQRVEKDMKKAKEQLKIPK [R23P]: 1.63; for YIKVDWQRVEKDMKKAKEQLKIWK [R23W]: 1.59. Still for that read-out and setting: the same measure for YIKVDWQRVEKDMKKAKEQLKIVK [R23V]: 2.26; for YIKVDWQRVEKDMKKAKEQIKIRK [L20I]: 2.42.

For the variant YIKVDWQRVEKDMKKAKEQHKIRK [L20H], the protein stability index stood at 1.71. On the same count and under the same terms, the figure for YIKVDWQRVEKDMKKAKEQNKIRK [L20N] is 1.49; for YIKVDWQRVEKDPKKAKEQLKIRK [M13P] it is 1.17.

As to YIKVDWQRVEKDMYKAKEQLKIRK [K14Y], the protein stability index worked out at 4.38. On the same count and under the same terms, the same measure for YIKVDWQRVEKDMIKAKEQLKIRK [K14I]: 1.67.
